This is an account of results in US20230085439A1 (UNIVERSITY OF GEORGIA RESEARCH FOUNDATION, published 2023).

Like-named read-outs stand apart in the source and are kept apart here.

Test [1] deals with hMPV F protein of hMPV A2 strain CAN/97-83 (human metapneumovirus, UniProt Q6WB98 19-539). Nature of the test: cell-based or functional assay.
For test [2], the target named is hMPV F protein of hMPV B2 strain TN/93-32 (human metapneumovirus). Nature of the test: cell-based or functional assay.
The target of test [3] is T1, hMPV A1 F (human metapneumovirus). Nature of the test: ELISA on coated antigen, mAb titrated; EC50 box, key 1.
In test [4] the target is T2, hMPV A2 F (human metapneumovirus). Nature of the test: ELISA on coated antigen, mAb titrated; EC50 box, key 2. On the technique in general: In an ELISA, binding on a coated surface is turned into a signal by an enzyme label.
The target of test [5] is T3, hMPV B1 F (human metapneumovirus). Nature of the test: ELISA on coated antigen, mAb titrated; EC50 box, key 3.
The target in test [6] is T1, hMPV A1 F.
The target of test [7] is T2, hMPV A2 F.
Test [8] concerns the target T3, hMPV B1 F.
For test [9], the target named is T4, hMPV B2 F (human metapneumovirus).
The next test addresses hMPV B2 F-GCN4 dFP 6R (human metapneumovirus).
The target in another test is T5, hMPV 130-BV (human metapneumovirus).
T5 construct: also called hMPV 130-BV F; hMPV F 130-BV
Nature of the test: ELISA on coated antigen, mAb titrated; EC50 list entry 5 of 7 (marker of hMPV 130BV).

The target in test [10] is T6, monomeric hMPV B2 F protein treated with trypsin (human metapneumovirus). The test is described as follows: ELISA on trypsin-treated monomeric and trimeric hMPV B2 F.
Test [11] has as its target T7, trimeric hMPV B2 F protein treated with trypsin (human metapneumovirus). The test is described as follows: ELISA on coated antigen, mAb titrated; panel hMPV B2 F trimer (trypsin), key 2.
Test [12] deals with T6, monomeric hMPV B2 F protein treated …. Nature of the test: ELISA on coated antigen, mAb titrated; panel hMPV B2 F monomer (trypsin), key 2.
The target of test [13] is T4, hMPV B2 F. Nature of the test: ELISA on coated antigen, mAb titrated; EC50 box, key 4.
Test [14] has as its target T7, trimeric hMPV B2 F protein treated with …. The test is described as follows: ELISA on coated antigen, mAb titrated; panel hMPV B2 F trimer (trypsin), key 1.
The target in test [15] is T6, monomeric hMPV B2 F protein treated …. The test is described as follows: ELISA on coated antigen, mAb titrated; panel hMPV B2 F monomer (trypsin), key 1.

B1: MPV364 (antibody, V domains shown)
VH: QVQLVQSGAEVKKPGASVKVSCKASGYTFTHDSIHWVRQAPGQRLEWMGWINVGNGDTKSSQKFQDRLTITRDTSANTAYMEVRSLKYEDTAMYFCARVDQYCIGGVCYGGKNWFDPWGQGTLVTVSS
VL: SYELNQPPSVSVAPGQTAMITCGGYYVGVKSLHWYQQKAGQAPVLVVHDDSDRPSGIPERFSGSKSGDTATLIISRVEAGDEADYYCQVWDRDSDHPYVFGTGTTVTVL
notes: also called mAb MPV364; hMPV364
What is called EC50 is the concentration at which the effect is half-maximal. As for B1, the “IC50, plaque neutralization” value in test [1] was determined as 8 ng/mL; in test [2] it was 18 ng/mL. The EC50 was 0.25 µg/mL with hMPV A1 F [3], 0.44 µg/mL with hMPV A2 F [4] and 0.2 µg/mL in the test with hMPV B1 F [5].

B2: MPE8 (antibody, V domains shown)
VH: EVQLVESGGGLVKPGGSLRLSCAASGFTFSSYSMNWVRQAPGKGLEWVSSISASSSYSDYADSAKGRFTISRDNAKTSLFLQMNSLRAEDTAIYFCARARATGYSSITPYFDIWGQGTLVTVSS
VL: QSVVTQPPSVSGAPGQRVTISCTGSSSNIGAGYDVHWYQQLPGTAPKLLIYDNNNRPSGVPDRFSASKSGTSASLAITGLQAEDEADYYCQSYDRSLSGVFGTGTKVTVL
notes: also called mAb MPE8; MPE8 antibody
For the molecule B2, the EC50 with hMPV B2 F GCN4 amounted to 4.7 µg/mL; in the test with hMPV A1 F [6] it was 14 µg/mL; in the test with hMPV A2 F [7] it was 4.3 µg/mL; with hMPV B1 F [8] it was 3.1 µg/mL; with hMPV B2 F [9], 36 µg/mL; with hMPV B2 F-GCN4 dFP 6R it was 5.9 µg/mL. For the same molecule, the response in the test with hMPV 130-BV was half-maximal at 1.8 µg/mL (EC50).

B3: MPV458 (antibody, V domains shown)
VH: QGKLVESGGGVIQPGRSLRLSCAASGFDFSRYGLHWVRQAPGKGLEWVAVIVYAGSNKYYADSVKGRFTISKDNSKNTMHLQMSDLRTEDTAVYYCARDQAFDLWGQGTMVTVSS
VL: DIQMTQSPASLSASVGDRVTITCQASQGISRSVNWYQQKPGKAPKLLIFDASHLERGVPSRFSGSGYGTDFTFTISSLQPEDIATYYCQQYDNLRISFGQGTRLEIK
notes: also called mAb MPV458; MPV458 IgG
As to B3, the EC50 with hMPV B2 F GCN4 came out at 0.2 µg/mL; with hMPV A1 F [6], 0.75 µg/mL; with hMPV A2 F [7] it was 0.39 µg/mL; in the test with hMPV B1 F [8], 0.39 µg/mL; in the test with hMPV B2 F [9] it was 0.6 µg/mL; with hMPV B2 F-GCN4 dFP 6R, 0.37 µg/mL. For the same molecule, the EC50 in test [11] came out at 0.9 µg/mL; in test [12], 0.25 µg/mL; with hMPV 130-BV, 0.24 µg/mL. Also, the entries for the “50% inhibitory concentration (IC50), plaque neutralization” value in test [1] and in test [2] were 33 ng/mL and 490 ng/mL, respectively. In addition, the “fold EC50, monomeric against trimeric hMPV B2 F” value in test [10] is about 4 fold lower.

B4: MPV201 (antibody, V domains shown)
VH: QVQLVQSGGGGVQPGRSLRLSCAASGFIFSDYGMHWVRQAPGKGLEWVAVISYDGSNQYYADSVKGRFTISRDNSRNTLYLQMNSLRVEDTAVYYCAKDQGRRYYYSSGYLDYWGQGTLVTVSS
VL: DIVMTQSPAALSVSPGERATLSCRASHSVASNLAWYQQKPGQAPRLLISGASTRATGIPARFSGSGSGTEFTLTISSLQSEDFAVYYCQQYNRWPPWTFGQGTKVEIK
notes: also called mAb MPV201
As for B4, the EC50 in the test with hMPV A1 F [3] stood at 0.104 µg/mL; with hMPV A2 F [4] it was 0.14 µg/mL; with hMPV B1 F [5], 0.042 µg/mL; with hMPV B2 F [13], 0.089 µg/mL.

B5: MPV196 (antibody, V domains shown)
VH: QVQLQQWGAGLLKPSETLSLTCAVYGGSFSGYSWTWIRQPPGKGLEWIGEINHSGSTNYNPSLKSRVTISIDTSRNQFSLKLISVTAADTAVYYCARGVRGGYNLWHFDVWGQGTLVTVSS
VL: SYELSQSPSVSVSPGQTARITCSGDKLGNKYASWYQQKPGQSPVLVIYQDDKRPSGIPERFSGSNSGNTATLTIGGTQAMDEADYSCQAWDGRTAVVFGGGTKLTVL
notes: also called mAb MPV196
As for B5, the EC50 with hMPV B2 F GCN4 came to 0.18 µg/mL; with hMPV A1 F [6], 0.27 µg/mL; in the test with hMPV A2 F [7] it was 0.17 µg/mL; in the test with hMPV B1 F [8] it was 0.12 µg/mL; with hMPV B2 F [9], 0.44 µg/mL; with hMPV B2 F-GCN4 dFP 6R it was 0.15 µg/mL. The EC50 with hMPV A1 F [3] was 0.15 µg/mL; in the test with hMPV A2 F [4] it was 0.204 µg/mL; with hMPV B1 F [5], 0.077 µg/mL; with hMPV B2 F [13] it was 0.136 µg/mL; in test [14] it was 0.17 µg/mL; in test [15], 0.091 µg/mL. In the test with hMPV 130-BV, this molecule gave an EC50 of 0.14 µg/mL.

B6: MPV314 (antibody, V domains shown)
VH: QVQLVQSGGGVVQPGRSLRLSCAASGFSFSDYGMDWVRQAPGKGLEWVAVISYDGSNQYYADSVKGRFTVSRDNSKNTVYLQMNSLRAEDTAVYFCAKDESRRYYYSSGIHSHWGQGTLVTVSS
VL: DIVMTQSPATLSVSPGERATLSCRASQSVSRNLAWYQQKPGQAPRLLIFGASTRATGIPARFSGSASGTEFTLTISSLQSEDFAVYYCHQYNYWPPGTFGQGTRLEIK
notes: also called mAb MPV314
Turning to B6, the EC50 with hMPV A1 F [3] turned out to be 0.096 µg/mL; with hMPV A2 F [4], 0.102 µg/mL; in the test with hMPV B1 F [5], 0.039 µg/mL.
